Assay results published in the supplement of paper PMC10724198.
± gives the standard deviation of the averaged measurements.

Columns and labels:
Saccharomyces cerevisiae [1] = experiment: protein stability index of tFT-peptide fusion (C-terminal peptide) (PSI (0-1 scale)); higher = more stable (slower turnover)
Experimental: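 MPS profiling in S. cerevisiae of the tFT-X12 degron library: putative degron peptides plus stable controls, 12 aa, fused to the C-terminus of a sfGFP-mCherry timer. Cells are FACS-sorted into 8 mCherry/sfGFP bins and deep-sequenced. PSI runs from 0 (unstable) to 1 (stable). Backgrounds are wild type, das1Δ and doa10Δ at 30 °C, and wild type, das1Δ, cdc34-1 and cdc53-1 at 37 °C; 2-3 technical replicates each.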

Saccharomyces cerevisiae [2] = experiment: as above; settings: genetic background: wild type; temperature: 30 C
[3] = genetic background: cdc34-1, temperature: 37 C
[4] = genetic background: cdc53-1, temperature: 37 C
[5] = genetic background: das1 deletion, temperature: 30 C
[6] = genetic background: das1 deletion, temperature: 37 C
[7] = genetic background: doa10 deletion, temperature: 30 C
[8] = genetic background: wild type, temperature: 30 C
[9] = genetic background: wild type, temperature: 37 C
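Further: PSI is a weighted mean of sequencing reads over stability bins, variants kept only with over 10 reads, mCherry proximal and sfGFP distal, peptide attached via GGGS linker.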

Sequence | protein stability index (Saccharomyces cerevisiae [1]; [3]) | protein stability index (Saccharomyces cerevisiae [1]; [4]) | protein stability index (Saccharomyces cerevisiae [1]; [5]) | protein stability index (Saccharomyces cerevisiae [1]; [6]) | protein stability index (Saccharomyces cerevisiae [1]; [7]) | protein stability index (Saccharomyces cerevisiae [1]; [8]) | protein stability index (Saccharomyces cerevisiae [1]; [9]) | protein stability index (Saccharomyces cerevisiae [2])
WGRAADRRRRLG | 0.633 ± 0.054 | 0.731 ± 0.039 | 0.628 ± 0.011 | 0.7658 ± 0.0054 | 0.152 ± 0.0034 | 0.207 ± 0.013 | 0.344 ± 0.018 | 0.346 ± 0.025
WGRENLTRVKLE | 0.70486 ± 0.00049 | 0.769 ± 0.0032 | 0.618 ± 0.049 | 0.725 ± 0.0082 | 0.207 ± 0.015 | 0.2 ± 0.017 | 0.424 ± 0.035 | 0.372 ± 0.061
WILIGVRFSCFG | 0.109 ± 0.0085 | 0.233 ± 0.069 | 0.189 ± 0.034 | 0.339 ± 0.015 | 0.159 ± 0.013 | 0.165 ± 0.021 | 0.276 ± 0.018 | 0.299 ± 0.0058
WISDRCPSVLCY | 0.0407 ± 0.0022 | 0.0838 ± 0.0009 | 0.185 ± 0.025 | 0.206 ± 0.011 | 0.143 ± 0.011 | 0.157 ± 0.028 | 0.184 ± 0.017 | 0.251 ± 0.015
WLPFFPLSLRGV | 0.321 ± 0.012 | 0.317 ± 0.011 | 0.412 ± 0.027 | 0.5374 ± 0.0038 | 0.63 ± 0.0096 | 0.436 ± 0.048 | 0.5 ± 0.0093 | 0.497 ± 0.2
WLWFVGCLAAPL | 0.63 ± 0.032 | 0.662 ± 0.066 | 0.529 ± 0.024 | 0.6316 ± 0.001 | 0.523 ± 0.021 | 0.536 ± 0.04 | 0.5957 ± 0.0016 | 0.541 ± 0.07
WQGLSGSPILVI | 0.197 ± 0.012 | 0.248 ± 0.015 | 0.247 ± 0.037 | 0.3829 ± 0.0012 | 0.206 ± 0.0061 | 0.241 ± 0.048 | 0.334 ± 0.013 | 0.402 ± 0.016
WQILVRLIDFYT | 0.453 ± 0.011 | 0.446 ± 0.023 | 0.345 ± 0.034 | 0.5107 ± 0.0039 | 0.311 ± 0.0072 | 0.338 ± 0.0092 | 0.4889 ± 0.00098 | 0.436 ± 0.0055
WSSWFLWVIFRL | 0.176 ± 0.011 | 0.173 ± 0.023 | 0.34 ± 0.035 | 0.433 ± 0.056 | 0.459 ± 0.0077 | 0.289 ± 0.035 | 0.288 ± 0.035 | 0.348 ± 0.02
WSWCLDVVCFTS | 0.498 ± 0.036 | 0.547 ± 0.027 | 0.45 ± 0.021 | 0.563 ± 0.019 | 0.446 ± 0.011 | 0.439 ± 0.011 | 0.531 ± 0.024 | 0.471 ± 0.0059
WVGWVVVLGCVG | 0.373 ± 0.027 | 0.42 ± 0.012 | 0.29 ± 0.026 | 0.47 ± 0.013 | 0.25152 ± 0.00025 | 0.282 ± 0.018 | 0.449 ± 0.022 | 0.489 ± 0.013
WVRIIIKLRASL | 0.444 ± 0.011 | 0.4476 ± 0.0035 | 0.34 ± 0.021 | 0.41 ± 0.0083 | 0.274 ± 0.0048 | 0.253 ± 0.011 | 0.345 ± 0.034 | 0.315 ± 0.041
WVSFFILYCVYR | 0.274 ± 0.016 | 0.345 ± 0.024 | 0.253 ± 0.04 | 0.445 ± 0.017 | 0.23 ± 0.0055 | 0.237 ± 0.018 | 0.378 ± 0.011 | 0.232 ± 0.03
WWADRLVGVCIV | 0.55 ± 0.034 | 0.539 ± 0.026 | 0.439 ± 0.024 | 0.587 ± 0.0076 | 0.38961 ± 2.3e-05 | 0.422 ± 0.023 | 0.5359 ± 0.00088 | 0.491 ± 0.011
WYYTWKQLVMIV | 0.0845 ± 0.01 | 0.148 ± 0.0062 | 0.106 ± 0.023 | 0.186 ± 0.0072 | 0.0276 ± 0.0037 | 0.0263 ± 0.0054 | 0.0433 ± 0.021 | 0.0294 ± 0.022
YARFWYSKAFIC | 0.455 ± 0.048 | 0.555 ± 0.011 | 0.581 ± 0.033 | 0.694 ± 0.025 | 0.12 ± 0.023 | 0.115 ± 0.012 | 0.169 ± 0.0034 | 0.2 ± 0.013
YCILGSYRLCVG | 0.337 ± 0.037 | 0.434 ± 0.073 | 0.259 ± 0.033 | 0.447 ± 0.018 | 0.2321 ± 0.00024 | 0.252 ± 0.033 | 0.427 ± 0.012 | 0.36 ± 0.0049
YCSIQIQLVYGI | 0.341 ± 0.0037 | 0.4103 ± 0.0034 | 0.302 ± 0.025 | 0.441 ± 0.0063 | 0.301 ± 0.0082 | 0.312 ± 0.013 | 0.396 ± 0.011 | 0.424 ± 0.023
YFFVCYFSLLVF | 0.0832 ± 0.019 | 0.139 ± 0.025 | 0.14 ± 0.032 | 0.231 ± 0.012 | 0.0967 ± 0.0036 | 0.119 ± 0.016 | 0.168 ± 0.03 | 0.177 ± 0.0081
YFYIRLGIAYMM | 0.421 ± 0.037 | 0.511 ± 0.056 | 0.436 ± 0.026 | 0.503 ± 0.019 | 0.197 ± 0.013 | 0.206 ± 0.019 | 0.264 ± 0.015 | 0.275 ± 0.027
